Biological target: T1, TofR-His (also written His-TofR) (Burkholderia glumae BGR1?) (UniProt A1KWS3)
T1 sequence: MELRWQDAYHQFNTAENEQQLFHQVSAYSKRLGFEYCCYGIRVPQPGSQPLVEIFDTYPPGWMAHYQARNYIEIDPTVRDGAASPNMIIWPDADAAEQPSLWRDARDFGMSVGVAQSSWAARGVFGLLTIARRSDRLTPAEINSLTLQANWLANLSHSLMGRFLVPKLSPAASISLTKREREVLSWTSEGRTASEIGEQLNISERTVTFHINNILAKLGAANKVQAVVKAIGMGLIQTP
Experiment: EMSA
Settings: EMSA: 0.4 nM biotin-DNA, 10 mM Tris-HCl pH 7.5, 10 mM NaCl, 100 mM NaCl (both sic), 0.5 mM EDTA, 1 mM DTT, 5% glycerol, 50 ng/uL poly(dI-dC), 15 min …

TGGTGTCCTCCAGATATGGGCTGCAGTCGATATGGGCTGCAGTATCGGATCTCGCTTATCATTACTCAAACGAAATTTTCTTGAGTTGAACATGAAAAATATTCAGGTTCACGCTGCTACTGAACGCCGCCATGAATCGCTCGCCGCTTGAGCTGCGCCATCTGCAGACCCTCACGGCGCT (double strand) [metE1 putative promoter region, 181 bp]
binding: binds

From paper PMC6667456
